Data taken from publication PMC5348300 (Journal of the American Chemical Society, 2017).

Molecular target: the molecule itself
Test: crystal structure

B1: coproheme decarboxylase (HemQ) from Geobacillus stearothermophilus (enzyme)
chain: MSEAAQTLDGWYCLHDFRTIDWSAWKTLPNEEREAAISEFLALVDQWETTESEKQGSHAVYTIVGQKADILFMILRPTLDELHEIETALNKTKLADYLLPAYSYVSVVELSNYLASGSEDPYQIPEVRRRLYPILPKTNYICFYPMDKRRQGNDNWYMLSMEQRRELMRAHGMTGRKYAGKVTQIITGSVGLDDFEWGVTLFSDDALQFKKLVYEMRFDEVSARFGEFGSFFVGTRLPMENVSSFFHV
stoichiometry N: 5
